The values below come from patent US20250230253A1 (Memorial Sloan Kettering, published 2025).

The target in one experiment is T1, mouse CD40 (mouse, UniProt P27512 20-193, limits assumed).
T1 construct: Recombinant mouse CD40 protein for ELISA; The construct and tag are not described; also called mCD40
T1 sequence (looked up): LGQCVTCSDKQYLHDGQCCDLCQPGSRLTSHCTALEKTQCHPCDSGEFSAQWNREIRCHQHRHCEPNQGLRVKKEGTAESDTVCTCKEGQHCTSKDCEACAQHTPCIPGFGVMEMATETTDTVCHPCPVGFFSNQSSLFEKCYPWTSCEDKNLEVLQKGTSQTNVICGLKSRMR
Briefly: ELISA on recombinant mouse CD40 protein, hybridoma supernatant. For orientation: In an ELISA, binding on a coated surface is turned into a signal by an enzyme label.

The target of experiment [1] is T2, human CD40 (human, UniProt P25942 21-193).
T2 construct: Recombinant protein coated for ELISA; The primary screen used 'soluble, His-tagged human CD40 (full-length and IgC2)'; also called huCD40; hCD40; not shown: His tag
The experiment can be described thus: ELISA of subcloned hybridoma supernatants on hCD40, anti-mouse IgG-HRP detection. Here is the method:
Next, the hybridomas were selected for subcloning to identify monoclonal antibodies against CD40. Briefly, cells were plated at a 1 cell per well density in 384-well plates, confirmed by microscopy, and expanded. After expansion, supernatants were screened by ELISA against hCD40. The mAbs were detected using anti-mouse IgG-conjugated to HRP.

Experiment [2] concerns the target T2, human CD40. Briefly: ELISA on recombinant human CD40 protein, hybridoma supernatant.

T2 sequence (P25942 21-193 limits assumed): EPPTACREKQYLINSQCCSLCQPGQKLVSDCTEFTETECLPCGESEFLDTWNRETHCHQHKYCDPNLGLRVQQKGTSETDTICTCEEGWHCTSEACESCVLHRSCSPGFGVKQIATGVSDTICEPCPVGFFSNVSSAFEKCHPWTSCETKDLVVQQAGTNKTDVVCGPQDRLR

B1: anti-CD40 antibody 41-I22 (antibody, V domains shown)
VH: EVQLQQSGAVLVKPGASVRLSCTASGFNIKDTYIHWVKQRPEQGLEWIGKIDPANGNTKFDPKFQGKATIAADTSSNTAYLQLSSLTSEDTAVYYCARDYYGTIFPYWYFDVWGAGTTVTVSS
VL: QIVLTQSPAIMSASPGEKVTITCSASSSVSYMHWFQQKPGTSPKFWIYITSNLASGVPARFSGSGSGTSYSLTISRMEAEDAATYYCQQRSSYPLTFGAGTKLELK
notes: Mouse hybridoma monoclonal antibody tested as hybridoma supernatant and detected with anti-mouse IgG-HRP
As for B1, the binding result in the experiment with mouse CD40 was “no binding”; with human CD40 [1], “binds”.

B2: anti-CD40 antibody 39-K17 (antibody, V domains shown)
VH: QVQLQQPGAELVKPGASVKLSCTASGYIFTNYWMNWVKQRPGRGLEWIGRIHPSDSESLYNQKFKSKAILTVDKSSSTAYIQLSSLTSEDSAVYYCARSPLTKVVTTDFWGQGTTLTVSS
VL: EIVLTQSPAIMPASPGEKVTMTCSASSSVNYMHWYQQKSGTSPKRWIYDTSKLASGVPVRFSGSGSGTSYSLTISSMEAEDAATYYCQQWSSNPLTFGGGTKLEIK
notes: as for B1
As for B2, the binding result was “no binding” with mouse CD40 and “binds” in the experiment with human CD40 [1].

B3: anti-CD40 antibody 41-J9 (antibody, V domains shown)
VH: DVQLQESGPDLVKPSQSLSLTCTVTGYSITSDYSWHWIRQFPGNKLEWMGYIYYSGSTNYNPSLKSRISITRDTSKNQFFLQLNSVTSEDTATYYCARFYYGWSYFDYWGQGTSLTVSS
VL: EIVLTQSPAIMPASPGEKVTMTCSASSSVNYMHWYQQKSGTSPKRWIYDTSKLASGVPVRFSGSGSGTSYSLTISSMEAEDAATYYCQQWSSNPLTFGGGTKLEIK
notes: as for B1
Take B3: the binding result is “no binding” with mouse CD40 and “binds” with human CD40 [1].

B4: anti-CD40 antibody 9-P1 (antibody, V domains shown)
VH: QVQLQQSGAELMKPGASVKISCKATGYTFSTYWIEWVKQRPGHGLEWIGEILPGSGSTNYNEKFRGKATFTADTSSNTAYMQLSSLTSEDSAVYYCARSYYTYDQGSWLAYWGQGTLVTVSA
VL: DIVMSQSPSSLAVSVGEKVTMTCKSSQSLLYSGNQKNYLAWYQQKPGQSPKLLINWASTRESGVPDRLTGSGSGTDFSLTISSVKAEDLAVYYCQQYYSYPYTFGGGTKLEIK
notes: as for B1
With B4, in the experiment with human CD40 [1], the binding result is recorded as “binds”.

B5: anti-CD40 antibody 10-B8 (antibody, V domains shown)
VH: QVQLQQPGSVLVRPGASVKLSCKASGFTFATSWMHWAKERPGQGLEWIGQIHPNSGNTNYNEKFKGKATLTVDTSSSTAYVDLSSLTSEDSAVYYCARGADYAMDYWGQGTSVTVSS
VL: DVLMTQTPLSLPVSLGDQASISCRSSQSIVHSNGNTYLEWYLQKPGQSPKLLIYIVSNRFSGVPDRFSGSGSGTDFTLKISRVEAEDLGVYYCFQGSHVPWTFGGGTKLEIK
notes: as for B1
As for B5, the binding result with human CD40 [2] is listed as “binds”.

B6: anti-CD40 antibody 26-I22 (antibody, V domains shown)
VH: QVQLQQPGAELVKPGASVKLSCKASGYTFINYWINWMRQRPGQGLEWIGNIYPGSSSTTYNEKFKSKAALTVDTSSSTAYMQLSSLTSDDSAVYFCARSVGYWYFDVWGAGTTVTVSS
VL: DIVMSQSPSSLAVSVGEKVTLSCKSSQSLFFSGNQKNFLAWYQQKPGQSPNLLIFWASTRESGVPDRFTGSGSGTDFTLTISSVKAEDLAVYYCQQYYSYPFTFGSGTKLEIK
notes: as for B1
Regarding B6, the binding result with human CD40 [1] is given as “binds”.

B7: anti-CD40 antibody 12-O17 (antibody, V domains shown)
VH: QVQLQQSGAELMKPGASVKISCKATGYTFSTYWIEWVKQRPGHGLEWIGEILPGSGSTNYNENFKGKATFTADTSSNTAYMQLSSLTSEDSAVYFCARGGLYYYGGAMDYWGQGTSVTVSS
VL: DIVMSQSPSSLAVSVGEKVTMSCKSSQSLLYSGNQKNYLAWYQQKPGQSPKLLIYWASIRESGVPDRFTGSGSGTDFTLTISSVKAEDLAVYYCQQYYSYPYTFGGGTKVEIK
notes: as for B1
On to B7, for which the binding result is “no binding” with mouse CD40 and “binds” with human CD40 [1].

B8: anti-CD40 antibody 10-K9 (antibody, V domains shown)
VH: EVQLVESGGDLVKPGGSLKLSCAASGFTFSSYGMSWVRQTPDKRLEWVATISSDGSHTYYPDSVKGRFTISRDIAKNTLYLQMSSLKSEDTAMYYCVRQGRYVPSFDVWGAGTTVTVSS
VL: DIVLTQSPATLSVTPGDSVSLSCRASQSIRNNLHWYQQKSHESPRLLIKDASQSISGTPSRFSGSGSGTDFTLSINSVETEDFGMYFCHQTNNWPFTFGSGTKLEIK
notes: as for B1
Consider B8, for which the binding result is on record as “no binding” with mouse CD40 and “binds” in the experiment with human CD40 [2].

B9: anti-CD40 antibody 30-P15 (antibody, V domains shown)
VH: EVMLVESGGALVKPGGSLKLSCAASGFTFSNYAMSWVRQTPEKRLEWVATIGTSGSYTYYSDSVKGRFTISRDNARNTLYLQMTSLRSEDTAMYYCARRGYYNPTHAMDYWGQGTSVTVSS
VL: QAVVTQESALTTSPGETVTLTCRSSTGAVTTSNYANWVQEKPDHLFTGLIGGTNNRAPGVPARFSGSLIGDKAALTITGAQTEDEAIYFCALWYSNHLVFGGGTKLTVL
notes: as for B1
For B9, the binding result with mouse CD40 is “no binding”; in the experiment with human CD40 [1], “binds”.

B10: anti-CD40 antibody 41-E17 (antibody, V domains shown)
VH: DVQLVESGGGLVQPGGSRKLSCAASGFTFSTFGMHWVRQAPEKGLEWVAYISGGSSTIYYADTVKGRFTISRDNPKNTLFLQMTSLRSEDTAMYYCVRPYGSVHYAMDYWGQGTSVTVSS
VL: DIQMTQTTSSLSASLGDRVTISCRASQDINNYLNWYQQKPDGTVKLLIYYTSRFHSGVPSRFSGSGSGTDYSLTISNLEQEDIATYFCQQGNTLPWTFGGGTKLDIK
notes: as for B1
On to B10, for which the binding result with mouse CD40 is “no binding”; with human CD40 [1] it was “binds”.
